In patent US7267822:
Where no end group is shown, it is not given here.

Target: recombinant hsc70 (Stressgen, Victoria, Canada)
Assay: competition ELISA on coated hsc70 against biotinylated-2702.75-84 (3 uM)

For RENLRIALRY-NH2 (also: acetate salt) [peptide 2702.75-84], the IC50 was 7 µM.
